Measured values published in doi:10.1101/2025.08.04.25332941.

Tests used:
[1] = biological target: HLA-A*24 with C-terminal His tag (A*24-His Tg) (human); experiment: SPR
[2] = biological target: HLA-A*33 with C-terminal His tag (A*33-His Tg) (human); experiment: SPR

Question: With “Toxoplasma antigenic peptide SAG2C, wild type” as the substance, how does the SPR response at 200 µM [1] read?
Answer: 15 RU

Question: What about the SPR response at 200 µM [2] of the same substance?
Answer: 150 RU
